Data: patent publication US6432920B1, “Nck SH3 binding peptides” (Cytogen Corporation, priority 1994, dated 2002)
“Also recorded” adds a separate entry of the source.

What was measured:
[1] = biological target: T1, Src SH3-GST (Homo sapiens, UniProt P12931); test: Biotinylated synthetic peptide binding ELISA to immobilized Src SH3-GST; settings: for binding to Src SH3 domain (Src SH3-GST): 10 μM biotinylated peptide, streptavidin-alkaline phosphatase ELISA, FIGS. 7 and 8; for relative specificity of binding for SH3 domains of different proteins: Src family versus Grb2, Crk, Abl, PLCγ SH3 domains, FIG. 8
T1 construct: Bacterially expressed Src SH3 glutathione-S-transferase (Src-GST) fusion protein was purified from bacterial lysates; made in house; host or cells: bacteria (pGEX vector)
Method: (§1) These biotinylated peptides were assayed for direct binding to immobilized Src SH3-GST. […] Furthermore, a strong correlation was observed between the similarity of a given peptide to the preferred core consensus sequence RPLP(P/M)LP (SEQ ID NO:96) and the peptide's affinity for Src SH3-GST.
(§2) The preparation of Src-GST fusion protein was first described by Smith and Johnson, in Gene (1988) 67:31, the disclosure of which is incorporated by reference herein. Briefly, pGEX-derived (Pharmacia, Piscataway, N.J.) constructs expressing GST fusion proteins containing the SH3 domains of Src, Grb2, Crk, Abl, or PLCγ were obtained from Dr. Channing Der (University of North Carolina at Chapel Hill); a construct expressing the SH3 domain of Yes was obtained from Dr. Marius Sudol (Rockefeller University). The use of the pGEX bacterial expression vector for the production of GST-SH3 fusion proteins is well-known to those in the art. See, e.g., Cicchetti, P. et al., in Science (1992) 257:803-806. Briefly, the coding region for a particular SH3 domain can be fused in-frame at the Bam HI site of pGEX-2T. Thus, fusion proteins were prepared as per the manufacturer's instructions, and quantified by Coomassie Blue staining of SDS-polyacrylamide gels. Microtiter wells were coated with 5-20 μg GST-SH3 fusion protein in 100 mM NaHCO3, pH 8.5, blocked with 100 mM NaHCO3 (pH 8.5) 1% BSA, and washed. All washes consisted of five applications of 1XPBS, 0.1% Tween 20, 0.1% BSA (Buffer A). Where appropriate, the amount of protein bound to each well was quantified with an anti-GST antibody-based ELISA (Pharmacia, Piscataway, N.J.), and with a GST-binding phage, isolated during the course of this work.
Bacterially expressed Src SH3 glutathione-S-transferase (Src-GST) fusion protein was purified from bacterial lysates using glutathione agarose 4B (Pharmacia), according to the manufacturer's instructions. Bound Src-GST fusion protein was eluted from the glutathione agarose with 10 mM glutathione in PBS. Microtiter wells were then coated with Src-GST fusion protein (1-10 μg/well, in 50 mM NaHCO3, pH 8.5) overnight at 4° C. To block non-specific binding of phage, 100 μL 1% BSA in 100 mM NaHCO3, pH 8.5, was added to each well and allowed to incubate at room temperature for 1 hour. The wells were then washed five times with 200 μL PBS, 0.1% Tween™ 20, 0.1% BSA (Buffer A).
(§3) Peptides were obtained from Research Genetics (Birmingham, Ala.), Chiron Mimotopes (Victoria, Australia), or synthesized by conventional techniques by Dr. J. Mark Carter of Cytogen Corporation (Princeton, N.J.). Peptide purity was assessed by HPLC and/or mass spectrometry. Biotinylated peptides were synthesized with either a KSGSG (SEQ ID NO:103) or a GSGS (SEQ ID NO:104) peptide linker (a spacer) between the biotin and the N-terminus of the peptide. Binding experiments were performed as above, excepting the use of 10 μM peptide instead of phage. Bound biotinylated peptide was detected with streptavidin conjugated to alkaline phosphatase (Sigma Chemical Co., St. Louis, Mo.). After one hour incubation period at room temperature, the wells were washed, and a solution of 3 mM p-nitrophenyl-phosphate (US Biochemicals, Cleveland, Ohio) in 50 mM NaCO3 (pH 9.8), and 50 mM MgCl2 was added and color allowed to develop. Signals were read with an ELISA plate reader (Molecular Devices, Menlo Park, Calif.) at 405 nm wavelength. Binding experiments were performed in triplicate.

[2] = biological target: T2, Grb2-GST (Homo sapiens, UniProt P62993); test: Biotinylated synthetic peptide binding ELISA to immobilized Grb2-GST; settings: 10 μM biotinylated peptide, FIG. 8
T2 construct: made in house; host or cells: bacteria (pGEX vector)
T2 sequence (P62993 whole entry): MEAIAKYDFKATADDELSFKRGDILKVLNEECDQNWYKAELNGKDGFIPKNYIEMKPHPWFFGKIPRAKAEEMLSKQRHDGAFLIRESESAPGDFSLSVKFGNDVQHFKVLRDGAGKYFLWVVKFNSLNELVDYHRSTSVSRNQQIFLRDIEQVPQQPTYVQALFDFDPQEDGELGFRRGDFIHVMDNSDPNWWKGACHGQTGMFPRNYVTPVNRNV
Method: (§4) As mentioned above, the relative specificity of binding was explored. Thus, the relative binding of Src SH3-selected peptides to equal amounts of GST fusions to SH3 domains from different proteins was determined (FIG. 8). While all of the library-derived peptides bound the Src and Yes SH3 domains almost equally well, none of the peptides (with the exception of peptide T12.SRC3.1, the most divergent peptide tested) bound the SH3 domains of Grb2, Crk, Abl or PLCγ1 appreciably.
as §2, with “Briefly, the coding region for a particular SH3 domain can be fused in-frame at the Bam HI site of pGEX-2T.” left out, “Microtiter wells were coated with 5-20 μg GST-SH3 fusion protein in 100 mM NaHCO3, pH 8.5, blocked with 100 mM NaHCO3 (pH 8.5) 1% BSA, and washed. All washes consisted of five applications of 1XPBS, 0.1% Tween 20, 0.1% BSA (Buffer A).” left out
(§5) Peptides were obtained from Research Genetics (Birmingham, Ala.), Chiron Mimotopes (Victoria, Australia), or synthesized by conventional techniques by Dr. J. Mark Carter of Cytogen Corporation (Princeton, N.J.). Peptide purity was assessed by HPLC and/or mass spectrometry. […] Bound biotinylated peptide was detected with streptavidin conjugated to alkaline phosphatase (Sigma Chemical Co., St. Louis, Mo.). […] Signals were read with an ELISA plate reader (Molecular Devices, Menlo Park, Calif.) at 405 nm wavelength. […]

[3] = biological target: T3, Yes SH3-GST (Homo sapiens, UniProt P07947); test: Biotinylated synthetic peptide binding ELISA to immobilized Yes SH3-GST; settings: 10 μM biotinylated peptide, FIG. 8
T3 construct: a construct expressing the SH3 domain of Yes was obtained from Dr. Marius Sudol (Rockefeller University); made in house; host or cells: bacteria (pGEX vector)
T3 sequence (P07947 91-152 limits assumed): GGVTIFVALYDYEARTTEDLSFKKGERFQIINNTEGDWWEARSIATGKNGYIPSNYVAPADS
Method: as §1, §2, §3

[4] = test system: PLCγ1 SH2SH3-GST; test: Biotinylated synthetic peptide binding ELISA to immobilized PLCγ1 SH2SH3-GST; settings: 10 μM biotinylated peptide, FIG. 8
Method: as §4
as §2, with “Briefly, the coding region for a particular SH3 domain can be fused in-frame at the Bam HI site of pGEX-2T.” left out, “Microtiter wells were coated with 5-20 μg GST-SH3 fusion protein in 100 mM NaHCO3, pH 8.5, blocked with 100 mM NaHCO3 (pH 8.5) 1% BSA, and washed. All washes consisted of five applications of 1XPBS, 0.1% Tween 20, 0.1% BSA (Buffer A).” left out
as §5

[5] = test system: Xenopus laevis oocytes; test: Progesterone-induced X. laevis oocyte maturation (germinal vesicle breakdown); format: cell-based; settings: oocytes injected with 40 nL of 100 μM test peptide, 2 μg/mL progesterone; relative to water
Method: Briefly, Stage VI oocytes were prepared and injected as previously described (see, Kay, B. K., in Methods in Cell Biol. (1991) 36:663-669). Oocytes were injected with 40 nL of 100 μM test peptide or water. After injection, the oocytes were placed in 2 μg/mL progesterone (Sigma, St. Louis, MO) and scored hourly for germinal vesicle breakdown (GVBD). LAPPKPPLPEGEV is SEQ ID NO:70.
Moreover, Xenopus laevis oocytes injected with mRNA encoding constitutively active Src undergo progesterone-induced maturation at an accelerated rate relative to oocytes injected with water or c-Src mRNA. Unger, T. F. and Steele, R. E. in Mol. Cell. Biol. (1992) 12:5485-5498. To explore the ability of the library-derived Src SH3-binding peptides to exert a biochemical effect in vivo, the influence of the peptides on the maturation of Xenopus laevis oocytes was examined. […] The magnitude of this effect is roughly equivalent to that seen with injection of mRNA encoding constituitively active Src. See, e.g., FIG. 3B in Unger, T. F. and Steele, R. E., supra. […]
Segments of adult ovary were removed surgically and incubated in 0.1% collagenase type D (Boehringer Mannheim, Indianapolis, Ind.) in Ca^2+-free OR2 (82.5 mM NaCl, 2.5 mM KCl, 1.0 mM MgCl2, 1.0 mM Na2HPO4, 5.0 mM HEPES, and 3.8 mM NaOH, pH 7.6). […] Oocytes were scored at hourly time points for germinal vesicle breakdown (GVBD).

[6] = biological target: Src and PI-3′ Kinase SH3 domains; settings: Yu et al., biased synthetic peptide library; read-out: binding affinity; cited from earlier work
[7] = biological target: cellular Src of Xenopus laevis oocytes (Xenopus laevis); test: cell-based or functional assay

## ANPSPATRPLPTR [synthetic peptide of phage clone T12.SRC3.2]
[1]
  binding to Src SH3 domain (Src SH3-GST): comparable to the core consensus sequence
  relative specificity of binding for SH3 domains of different proteins: Src family specificity
[1]; listed as APSPATRPLPTR
  binding to Src SH3 domain (Src SH3-GST): avid binding affinity

## GILAPPVPPRNTR [synthetic peptide of phage clone T12.SRC3.1]
[2]
  binding to Grb2 SH3 domain (Grb2-GST): binds generically
[1]
  binding to Src SH3 domain (Src SH3-GST): much more avidly; also recorded: binds generically; also recorded: avid binding affinity
  relative specificity of binding for SH3 domains of different proteins: binds generically to a broad range of SH3 domains; also recorded: more generic SH3 domain-binding characteristics
[3]
  binding to Yes SH3 domain (Yes SH3-GST): much more avidly
[4]
  binding to PLCγ SH3 domain (PLCγ1 SH2SH3-GST): binds generically

## GPHRRLPPTPATR [synthetic peptide of phage clone T12.SRC3.3]
[2]
  binding to Grb2 SH3 domain (Grb2-GST): little affinity
[1]
  binding to Src SH3 domain (Src SH3-GST): much more avidly; also recorded: avid binding affinity
  relative specificity of binding for SH3 domains of different proteins: specific to src family SH3 domains
[3]
  binding to Yes SH3 domain (Yes SH3-GST): much more avidly
[4]
  binding to PLCγ SH3 domain (PLCγ1 SH2SH3-GST): little affinity

## GTVEPVPPPVPPRRRPESA [reference compound]
[1]
  binding to Src SH3 domain (Src SH3-GST): much less well

## KISPPTPKPRPPRPLPV [reference compound]
[1]
  binding to Src SH3 domain (Src SH3-GST): much less well

## LAPPKPPLPEGEV [proline-rich region of the cytoskeletal protein vinculin, control peptide, reference compound]
[1]
  binding to Src SH3 domain (Src SH3-GST): much less well
[5]
  rate of progesterone-induced oocyte maturation (germinal vesicle breakdown): not

## RKLPPRPRR [“composite” peptide of Yu et al]
[6]
  Kd: 7.6 µM

## RPLPPLP
[1]
  binding to Src SH3 domain (Src SH3-GST): less effective; also recorded: only weakly

## RSTPRPLPMLPTTR [synthetic peptide of phage clone R8C.YES3.5]
[1]
  binding to Src SH3 domain (Src SH3-GST): much more avidly; also recorded: strong specific binding affinity
  relative specificity of binding for SH3 domains of different proteins: highly specific
[3]
  binding to Yes SH3 domain (Yes SH3-GST): much more avidly

## RSTPRPLPPLPTTR [representative consensus motif with flanking residues of R8C.YES3.5]
[1]
  binding to Src SH3 domain (Src SH3-GST): much more avidly; also recorded: strong specific binding affinity
  relative specificity of binding for SH3 domains of different proteins: highly specific
[3]
  binding to Yes SH3 domain (Yes SH3-GST): much more avidly

## VLKRPLPIPPVTR [synthetic peptide of phage clone T12.SRC3.6]
[2]
  binding to Grb2 SH3 domain (Grb2-GST): some binding affinities
[1]
  binding to Src SH3 domain (Src SH3-GST): much more avidly; also recorded: strong binding affinities; also recorded: avid binding affinity
  relative specificity of binding for SH3 domains of different proteins: Src preferential
[3]
  binding to Yes SH3 domain (Yes SH3-GST): much more avidly
[5]
  rate of progesterone-induced oocyte maturation (germinal vesicle breakdown): faster rate; also recorded: increased rate
[4]
  binding to PLCγ SH3 domain (PLCγ1 SH2SH3-GST): little binding affinities

B1: … (peptide)
peptide: VLKRPLPIPPVTR
modifications: not checked
[7]
  rate of progesterone-induced maturation of Xenopus laevis oocytes (germinal vesicle breakdown): 1 h
